Source: article PMC11638070

Biological target: mitochondrial heat shock protein 60, wild type (mtHsp60) (human), P10809
Assay: SEC; analytical SEC of each protein alone (mtHsp60 samples 17 µM monomer); Superdex 200 Increase 3.2/300, room temperature, 20 mM HEPES pH 7.5, 100 mM KCl, 10 mM MgCl2
Details: remark: other sources report otherwise

B1: mitochondrial heat shock protein 60, wild type (mtHsp60), P10809 27-573 (natural protein)
chain: AKDVKFGADARALMLQGVDLLADAVAVTMGPKGRTVIIEQSWGSPKVTKDGVTVAKSIDLKDKYKNIGAKLVQDVANNTNEEAGDGTTTATVLARSIAKEGFEKISKGANPVEIRRGVMLAVDAVIAELKKQSKPVTTPEEIAQVATISANGDKEIGNIISDAMKKVGRKGVITVKDGKTLNDELEIIEGMKFDRGYISPYFINTSKGQKCEFQDAYVLLSEKKISSIQSIVPALEIANAHRKPLVIIAEDVDGEALSTLVLNRLKVGLQVVAVKAPGFGDNRKNQLKDMAIATGGAVFGEEGLTLNLEDVQPHDLGKVGEVIVTKDDAMLLKGKGDKAQIEKRIQEIIEQLDVTTSEYEKEKLNERLAKLSDGVAVLKVGGTSDVEVNEKKDRVTDALNATRAAVEEGIVLGGGCALLRCIPALDSLTPANEDQKIGIEIIKRTLKIPAMTIAKNAGVEGSLIVEKIMQSSSEVGYDAMAGDFVNMVEKGIIDPTKVVRTALLDAAGVASLLTTAEVVVTEIPKEEKDPGMGAMGGMGGGMGGGMF
  stoichiometry N: 7
